Laboratory results: publication PMC7708078, “How to limit the speed of a motor: the intricate regulation of the XPB ATPase and translocase in TFIIH” (Nucleic Acids Research, 2020)

How the values were obtained:
[1] = molecular target: ctXPB (from E. coli) (Chaetomium thermophilum)
[2] = molecular target: ctXPB (from E. coli) (Chaetomium thermophilum); remark: listed apart in the source
[3] = molecular target: ctXPB (from E. coli) (Chaetomium thermophilum); remark: listed apart in the source
[4] = system: ctXPB (Chaetomium thermophilum); assay: fluorescence polarization; conditions: 20 mM HEPES pH 7.5, 10 mM KCl, 2.5 mM MgCl2, 1 mM TCEP, 6 nM DNA, room temperature
[5] = system: ctXPB;ctp52;ctp8 (Chaetomium thermophilum;Chaetomium thermophilum;Chaetomium thermophilum); assay: fluorescence polarization; conditions: ctp52/ctp8 2:1 to ctXPB; Kd in nM XPB; 2.5 mM MgCl2, no ATP stated; 20 mM HEPES pH 7.5, 10 mM KCl, 2.5 mM MgCl2, 1 mM TCEP, 6 nM DNA, room temperature

Row | activation of ctXPB's ATPase by the ctp52/ctp8 variant, percent of wild type ctp52/ctp8 (% of wild type) [3] | Substance | other results
1 | 53 | ctp52_Y365A/ctp8 complex | –
2 | 134 | ctp52_R363E/ctp8 complex | –
3 | 57 | ctp52_M390E/ctp8 complex | –
4 | 116 | ctp52_R386L/ctp8 complex | –

The next lines start with the substance.

Row | Substance | activation of ctXPB's ATPase by the ctp52/ctp8 variant, percent of wild type ctp52/ctp8 (% of wild type) [3] | other results
5 | ctp52 (natural protein) | – | ATPase activity of ctXPB on titration of the co-purified ctp52/ctp34 complex to a fixed amount of ctXPB (Vmax 9.3 μmol ATP*l^−1*min^−1); EC50 [1]: 0.178 µM
6 | ctp52/ctp8 complex (wild type, co-purified) | – | ATPase activity of ctXPB on titration of the co-purified ctp52/ctp8 complex to a fixed amount of ctXPB (full activation 20.1 μmol ATP*l^−1*min^−1); EC50 [1]: 0.153 µM; decrease of the dsDNA-activated ATPase activity of ctXPB (from 58.8 to 18.9 μmol ATP*l^−1*min^−1) on titration of ctp52/ctp8 to an equimolar ctXPB/DNA complex; EC50 [2]: 0.138 µM
7 | ctp52_F387K/ctp8 complex | 46 | –
8 | ctp52_E359K/R363E / ctp8 complex | 6 | –
9 | ctp52_E359K/ctp8 complex | 5 | –
10 | AGCTACCATGCCTGCACGAATTAAGCAATTCGTAATCATGGTCATAGC (double strand) [Cy3-dsDNA 48 bp] | – | Kd [4]: 0.077 µM; Kd [5]: 51 nM
